# Reference: patent US20210170043A1, “DC-SIGN ANTIBODY CONJUGATES COMPRISING STING AGONISTS” (NOVARTIS AG, priority 2018, published 2021)
# B1: 2B2 (DAPA) C1 (conjugate)
# heavy: QVQLVQSGAEVKKPGASVKVSCKASGYTFTNYGINWVRQAPGQRLEWMGYIYIGNDYTEYNERFKGRVTITSDTSASTAYMELSSLRSEDTAVYYCARLYYGSSLYSYAMDYWGQGTTVTVSSASTKGPSVFPLAPSSKSTSGGTAALGCLVKDYFPCPVTVSWNSGALTSGVHTFPAVLQSSGLYSLSSVVTVPSSSLGTQTYICNVNHKPSNTKVDKRVEPKSCDKTHTCPPCPAPELLGGPSVFLFPPKPKDTLMISRTPEVTCVVVAVSHEDPEVKFNWYVDGVEVHNAKTKPREEQYNSTYRVVSVLTVLHQDWLNGKEYKCKVSNKALAAPIEKTISKAKGQPREPQVYTLPPSREEMTKNQVSLTCLVKGFYPCDIAVEWESNGQPENNYKTTPPVLDSDGSFFLYSKLTVDKSRWQQGNVFSCSVMHEALHNHYTQKSLSLSPGK
# light: DIVMTQSPLSLPVTPGEPASISCRSSKSLLHSSGNTYLYWFLQKPGQSPQLLISRMSNLASGVPDRFSGSGSGTDFTLKISRVEAEDVGVYYCMQHLEYPYTFGGGTKVEIKRTVAAPSVFIFPPSDEQLKSGTASVVCLLNNFYPREAKVQWKVDNALQSGNSQESVTEQDSKDSTYSLSSTLTLSKADYEKHKVYACEVTHQGLSSPVTKSFNRGEC
# Key:
# Assay type in all cases: in vivo, mouse
# [1] = system: CD11c+ dendritic cells of Tg+ mice; assay: Dendritic cell activation in DC-SIGN Tg+ mice (spleen, flow cytometry)
# Experimental: Spleens were harvested 24 hours post dose and analyzed by flow cytometry to look at CD11c+ dendritic cells.
# [2] = system: tumor and splenic immune cells; assay: Flow cytometry of spleen and tumor immune cells in tumor-bearing DC-SIGN transgenic mice (PDL1, T cell infiltration and activation); conditions: Tg+ mice
# Excerpt: FIGS. 19A-19B show exemplary data on DC-SIGN immunoconjugates inducing upregulation of surface PDL1.
# FIGS. 20A-20F show exemplary data on DC-SIGN immunoconjugates enhancing tumor T cell infiltration and T cell activation.
# [3] = system: transgenic mice expressing human DC-SIGN gene (Tg+); assay: Plasma cytokine and chemokine levels in human DC-SIGN transgenic mice; conditions: 6 hours post dose
# Experimental: Blood was collected at 6 hours post dose to analyze plasma cytokine and chemokine levels and spleens were analyzed at 24 hours post dose to look at dendritic cell activation.
# Mice were bled 6 hours after dosing to collect plasma for analysis of circulating cytokine levels.
# Plasma was collected at indicated timepoints and analyzed with a Mouse IP-10 Platinum ELISA kit (eBioscience Affymetrix). Plasma was diluted 1:100 and the protocol was followed according to the manufacturer's recommendations. Data was collected using an Enspire spectro-photometer using […] as the primary wavelength.
# Plasma was collected at indicated timepoints and analyzed with a Mouse IFN-beta ELISA kit (R&D Systems) according to the manufacturer's recommendations. Data was collected using an Enspire spectro-photometer using […] as the primary wavelength.
# Plasma was collected at indicated timepoints and analyzed with a mouse Proinflammatory Panel 1 (mouse) Kit V-PLEX™ 10 plex from MesoScale Discovery. 25 μL of plasma per sample was used and protocol was followed according to the manufacturer's recommendations. Data were collected and analyzed using a Sector Imager 6000.
# Human DC-SIGN transgenic mice (Tg+) (Schaefer et al., J. Immunol. (2008) 180 (10) 6836-6845) were bred to Signr1 deficient mice (−/− or KO) (Orr et al., Glycobiology (2013) 23(3): 363-380). Human DC-SIGN expression was checked using PCR to genotype the mice. Human DC-SIGN Tg+ Signr1−/− mice or human DC-SIGN Tg− Signr1−/− mice were tested with compounds as indicated in the above examples.
# [4] = system: MC38 tumor cells; assay: Flow cytometry of tumors and spleens of MC38 tumor-bearing mice (PDL1, T cell infiltration); conditions: Tg+ mice
# Experimental: Spleens and tumors were analyzed 24 hours post dose by flow cytometry for PDL1 expression.
# The effect of DC-SIGN immunoconjugate on tumor T cell infiltration was also evaluated. […] Mice After the mice were sacrificed 7 days after dosing, tumors were analyzed for T cell infiltration and activation by flow cytometry.
# Tumors and/or spleens were extracted at the timepoints indicated from animals. Spleens were processed into a single cell suspension using glass slides and passed through a 100 micron mesh filter. Spleens were lysed in 1 mL of ACK lysis buffer (Life Technologies) for 5 minutes at room temperature. After lysis, cells were pelleted and resuspended in complete RMPI medium (RPMI Media 1640 with 10 percent fetal bovine serum (FBS), 0.05 mM 2-mercaptoethanol, 1 percent Penicillin-Streptomycin-Glutamine, 1 percent non-essential amino acids, 1 percent HEPES, 1 percent sodium pyruvate (all media reagents from Thermo Fisher). Tumors were extracted and put into digestion media in gentleMACS C tubes. Digestion media consists of Dulbecco's Modified Eagle Medium with 0.04 U/mL Dispase (StemCell Technologies), 0.1 mg/mL Collagenase P (Sigma) and 0.1 mg/mL DNase (Sigma). Tumors were incubated with in digestion media and then processed using the gentleMACS Dissociator (Miltenyi Biotec Inc, San Diego, Calif.) to obtain a single cell suspension. After processing, cells were filtered in […] filters (Miltenyi Biotec Inc).
# 1-2 million cells for each sample were then stained with a cocktail of antibodies to determine impact of the treatments on dendritic cells, myeloid cells and T cells. For FACS analysis, cells were stained with a fixable, amine reactive dye to label dead cells (Zombie UV™ fixable viability kit, Biolegend) in PBS. For antibody staining, indicated antibodies (see table below) were diluted in PBS with 0.5% Bovine serum albumin (BSA, from Sigma). Samples were incubated at 4° C. for 30 minutes and then washed 2 times with PBS with 0.5% BSA. Cells were fixed with stabilizing fixative (BD). For intracellular analysis of FoxP3 to evaluate T regulatory cells, cells were fixed and permeabilized with the FoxP3 transcription factor kit according to manufacturer's recommendations (Thermo Fisher). Cells were then stained with FoxP3 clone FJK-16s (Thermo Fisher). After staining, cells were evaluated on the BD LSRFortessa™ cell analyzer (BD Biosciences, San Jose, Calif.).
# T cells were identified as CD3+ MHCII− cells. CD8+ T cells and CD4+ T cells were further defined as CD8 and CD4 positive, respectively. Tregs were identified from CD4+ T cells as being FoxP3+.
# Dendritic cells were identified as MHCII high CD11c high cells and further gated on expression of CD8 and CD11 b to identify CD8+DC subsets and CD11b+ DCs where noted. Monocytic myeloid derived suppressor cells were identified as CD45+ cells in tumors that express CD11b, MHCII, F4/80, Ly6C and are intermediate for Ly6G.
# [5] = MC38, 1 mg/kg, 24 hours post dose
molecule,measurement,setting,value
B1,CD80 upregulation on dendritic cells (DC activation),[1],significantly upregulated
same,CD86 upregulation on dendritic cells (DC activation),[1],significantly upregulated
same,surface PDL1 on splenic CD11c high dendritic cells,[2]; 1 mg/kg,significant upregulation
same,surface PDL1 on tumor resident dendritic cells and mMDSCs,[2]; 1 mg/kg,significant upregulation
same,CD3+ T cells in tumor,[2]; 24 and 48 hours post dosing,Increased
same,T cell activation as measured by CD69 upregulation on CD4 and CD8 T cells in tumors,[2]; 24 hours post dose,Enhanced T cell activation
same,CD8+ T cells in tumors,[2]; day 7 post dose,significant increase
same,FoxP3+ T regulatory cells in tumors,[2]; day 7 post dose,significant decrease
same,infiltration of CD8 T cells in tumors,[2]; in combination with anti-PDL1,enhanced infiltration of CD8 T cells
same,plasma IL-12p70,[3]; 1 mg/kg i.v. (Fab2 1.33 mg/kg),increased
same,plasma IP-10,"[3]; 1 mg/kg i.v. (Fab2 1.33 mg/kg, Fab 1.3 mg/kg)",increased
same,plasma TNFα,[3]; 1 mg/kg i.v.,increased
same,surface PDL1 on splenic CD11c high dendritic cells,[4]; [5],significant upregulation of surface PDL1
same,surface PDL1 on tumor resident dendritic cells and mMDSCs,[4]; [5],significant upregulation of surface PDL1
same,tumor CD3+ T cells,"[4]; MC38, 1 mpk, 24 and 48 hours post dosing",increased CD3+ T cells
same,T cell activation as measured by CD69 upregulation on tumor CD4 and CD8 T cells,"[4]; MC38, 1 mpk, 24 hours post dose",Enhanced T cell activation
same,tumor CD8+ T cells,"[4]; MC38, 1 mpk, day 7 post dose",significant increase in CD8+ T cells
same,tumor FoxP3+ T regulatory cells,"[4]; MC38, 1 mpk, day 7 post dose",significant decrease in FoxP3+T regulatory cells
same,"tumor infiltration of CD8 T cells, combination with anti-PDL1","[4]; MC38, conjugate plus anti-PDL1 clone 10F.9G2, 7 days after dosing",enhanced infiltration of CD8 T cells
